In patent US20240109955A1:

B1: MX1065 (trispecific antibody)
chain 1: QTVVTQEPSFSVSPGGTVTLTCGLSSGSVSTAYFPSWYQQTPGQAPRTLIYGTNTRSSGVPDRFSGSILGNKAALTITGAQADDESDYYCVLYMGRGIVVFGGGTKLTVLGGSSGEIVMTQSPAILSVSPGERATLSCRASQSVAINLAWYQQKPGQAPRLLIYAASSRATGIPGRFSGSGSETNFTLTISSLQSGDFAVYYCQQYITWPPSYTFGQGTKLEIKGGGGSGGSGSGGGGSASGSGEVQLVESGGALIQPGGSLRLSCAASGIIVSANYMSWVRQAPGKGLEWVSVIYSGGSTFYADSVKGRFTISRDNSKNTLYLEMNSLRAEDTAVYYCARDAPILGVSDWGQGTLVTVSSGGSSGQVQLVESGGGVVQPGRSLRLSCAASGFTLSSYGMHWVRQAPGKGLEWVAVISYDGSNKYYVDSVKGRFTISRDNSKNTLYLQMNSLRAEDTAVYYCRWAYWELLPDYYYGMDVWGQGTTVTVSSASGGSGDKTHTCPPCPAPELLGGPSVFLFPPKPKDTLMISRTPEVTCVVVDVSHEDPEVKFNWYVDGVEVHNAKTKPREEQYNSYVVSVLTVLHQDWLNGKEYKCKVSNKALPAPIEKTISKAKGQPREPQVYTLPPCRDELTKNQVSLWCLVKGFYPSDIAVEWESNGQPENNYKTTPPVLDSDGSFFKKLTVDKSRWQQGNVFSCSVLHEALHSHYTQKSLSLSPG
chain 2: QTVVTQEPSFSVSPGGTVTLTCGLSSGSVSTAYFPSWYQQTPGQAPRTLIYGTNTRSSGVPDRFSGSILGNKAALTITGAQADDESDYYCVLYMGRGIVVFGGGTKLTVLGGSSGDTVMTQSPLSLPVTPGEPASISCRSSQSLLNSNGYNYLDWYVQKPGQSPQLLIYLGSNRASGVPDRFSGSGSGTDFTLKISRVEAEDVGVYYCMQPLQTPLFTFGPGTKVEIKGGGGSGGSGSGGGGSASGSGQVTLRESGPALVKPTQTLTLTCTFSGFSLSTRGVCVSWIRQPPGKALEWLAFIDWDDDKYYNTSLKTRLTISKDTSKNQVVLTMTNVHPVDTATYYCARISSHHGSSWCTTFDYWGQGALVTVSAGGSSGQVQLVESGGGVVQPGRSLRLSCAASGFTLSSYGMHWVRQAPGKGLEWVAVISYDGSNKYYVDSVKGRFTISRDNSKNTLYLQMNSLRAEDTAVYYCRWAYWELLPDYYYGMDVWGQGTTVTVSSASGGSGDKTHTCPPCPAPELLGGPSVFLFPPKPKDTLMISRTPEVTCVVVDVSHEDPEVKFNWYVDGVEVHNAKTKPREEQYNSYVVSVLTVLHQDWLNGKEYKCKVSNKALPAPIEKTISKAKGQPREPQVCTLPPSRDELTKNQVSLSCAVKGFYPSDIAVEWESNGQPENNYKTTPPVLDSDGSFFLVSKLTVDKSRWQQGNVFSCSVLHEALHSHYTQKSLSLSPG
B2: MX1066 (trispecific antibody)
chain 1: QTVVTQEPSFSVSPGGTVTLTCGLSSGSVSTAYFPSWYQQTPGQAPRTLIYGTNTRSSGVPDRFSGSILGNKAALTITGAQADDESDYYCVLYMGRGIVVFGGGTKLTVLGGSSGEIVMTQSPAILSVSPGERATLSCRASQSVAINLAWYQQKPGQAPRLLIYAASSRATGIPGRFSGSGSETNFTLTISSLQSGDFAVYYCQQYITWPPSYTFGQGTKLEIKGGGGSGGSGSGGGGSASGSGEVQLVESGGALIQPGGSLRLSCAASGIIVSANYMSWVRQAPGKGLEWVSVIYSGGSTFYADSVKGRFTISRDNSKNTLYLEMNSLRAEDTAVYYCARDAPILGVSDWGQGTLVTVSSGGSSGQVQLVESGGGVVQPGRSLRLSCAASGFTLSSYGMHWVRQAPGKGLEWVAVISYDGSNKYYVDSVKGRFTISRDNSKNTLYLQMNSLRAEDTAVYYCRWAYWELLPDYYYGMDVWGQGTTVTVSSASGGSGDKTHTCPPCPAPELLGGPSVFLFPPKPKDTLMISRTPEVTCVVVDVSHEDPEVKFNWYVDGVEVHNAKTKPREEQYNSYVVSVLTVLHQDWLNGKEYKCKVSNKALPAPIEKTISKAKGQPREPQVYTLPPCRDELTKNQVSLWCLVKGFYPSDIAVEWESNGQPENNYKTTPPVLDSDGSFFKKLTVDKSRWQQGNVFSCSVLHEALHSHYTQKSLSLSPG
chain 2: DTVMTQSPLSLPVTPGEPASISCRSSQSLLNSNGYNYLDWYVQKPGQSPQLLIYLGSNRASGVPDRFSGSGSGTDFTLKISRVEAEDVGVYYCMQPLQTPLFTFGPGTKVEIKGGSSGQTVVTQEPSFSVSPGGTVTLTCGLSSGSVSTAYFPSWYQQTPGQAPRTLIYGTNTRSSGVPDRFSGSILGNKAALTITGAQADDESDYYCVLYMGRGIVVFGGGTKLTVLGGGGSGGSGSGGGGSASGSGQVQLVESGGGVVQPGRSLRLSCAASGFTLSSYGMHWVRQAPGKGLEWVAVISYDGSNKYYVDSVKGRFTISRDNSKNTLYLQMNSLRAEDTAVYYCRWAYWELLPDYYYGMDVWGQGTTVTVSSGGSSGQVTLRESGPALVKPTQTLTLTCTFSGFSLSTRGVCVSWIRQPPGKALEWLAFIDWDDDKYYNTSLKTRLTISKDTSKNQVVLTMTNVHPVDTATYYCARISSHHGSSWCTTFDYWGQGALVTVSAASGGSGDKTHTCPPCPAPELLGGPSVFLFPPKPKDTLMISRTPEVTCVVVDVSHEDPEVKFNWYVDGVEVHNAKTKPREEQYNSYVVSVLTVLHQDWLNGKEYKCKVSNKALPAPIEKTISKAKGQPREPQVCTLPPSRDELTKNQVSLSCAVKGFYPSDIAVEWESNGQPENNYKTTPPVLDSDGSFFLVSKLTVDKSRWQQGNVFSCSVLHEALHSHYTQKSLSLSPG
B3: MX1056 (trispecific antibody)
chain 1: DTVMTQSPLSLPVTPGEPASISCRSSQSLLNSNGYNYLDWYVQKPGQSPQLLIYLGSNRASGVPDRFSGSGSGTDFTLKISRVEAEDVGVYYCMQPLQTPLFTFGPGTKVEIKGGSSGEIVMTQSPAILSVSPGERATLSCRASQSVAINLAWYQQKPGQAPRLLIYAASSRATGIPGRFSGSGSETNFTLTISSLQSGDFAVYYCQQYITWPPSYTFGQGTKLEIKGGGGSGGSGSGGGGSASGSGEVQLVESGGALIQPGGSLRLSCAASGIIVSANYMSWVRQAPGKGLEWVSVIYSGGSTFYADSVKGRFTISRDNSKNTLYLEMNSLRAEDTAVYYCARDAPILGVSDWGQGTLVTVSSGGSSGQVTLRESGPALVKPTQTLTLTCTFSGFSLSTRGVCVSWIRQPPGKALEWLAFIDWDDDKYYNTSLKTRLTISKDTSKNQVVLTMTNVHPVDTATYYCARISSHHGSSWCTTFDYWGQGALVTVSAASGGSGDKTHTCPPCPAPELLGGPSVFLFPPKPKDTLMISRTPEVTCVVVDVSHEDPEVKFNWYVDGVEVHNAKTKPREEQYNSYVVSVLTVLHQDWLNGKEYKCKVSNKALPAPIEKTISKAKGQPREPQVYTLPPCRDELTKNQVSLWCLVKGFYPSDIAVEWESNGQPENNYKTTPPVLDSDGSFFKKLTVDKSRWQQGNVFSCSVLHEALHSHYTQKSLSLSPG
chain 2: DTVMTQSPLSLPVTPGEPASISCRSSQSLLNSNGYNYLDWYVQKPGQSPQLLIYLGSNRASGVPDRFSGSGSGTDFTLKISRVEAEDVGVYYCMQPLQTPLFTFGPGTKVEIKGGSSGQTVVTQEPSFSVSPGGTVTLTCGLSSGSVSTAYFPSWYQQTPGQAPRTLIYGTNTRSSGVPDRFSGSILGNKAALTITGAQADDESDYYCVLYMGRGIVVFGGGTKLTVLGGGGSGGSGSGGGGSASGSGQVQLVESGGGVVQPGRSLRLSCAASGFTLSSYGMHWVRQAPGKGLEWVAVISYDGSNKYYVDSVKGRFTISRDNSKNTLYLQMNSLRAEDTAVYYCRWAYWELLPDYYYGMDVWGQGTTVTVSSGGSSGQVTLRESGPALVKPTQTLTLTCTFSGFSLSTRGVCVSWIRQPPGKALEWLAFIDWDDDKYYNTSLKTRLTISKDTSKNQVVLTMTNVHPVDTATYYCARISSHHGSSWCTTFDYWGQGALVTVSAASGGSGDKTHTCPPCPAPELLGGPSVFLFPPKPKDTLMISRTPEVTCVVVDVSHEDPEVKFNWYVDGVEVHNAKTKPREEQYNSYVVSVLTVLHQDWLNGKEYKCKVSNKALPAPIEKTISKAKGQPREPQVCTLPPSRDELTKNQVSLSCAVKGFYPSDIAVEWESNGQPENNYKTTPPVLDSDGSFFLVSKLTVDKSRWQQGNVFSCSVLHEALHSHYTQKSLSLSPG

Key:
Assay in all cases: cell-based or functional assay
[1] = biological target: SARS-CoV-2 spike (S) protein, Omicron sublineage BQ.1 (SARS-CoV-2)
[2] = biological target: SARS-CoV-2 spike (S) protein, Omicron sublineage XBB (SARS-CoV-2)
[3] = biological target: SARS-CoV-2 spike (S) protein, Omicron sublineage BQ.1.1 (SARS-CoV-2)
[4] = biological target: SARS-CoV-2 spike (S) protein, Omicron sublineage BA.2.75.2 (SARS-CoV-2)
[5] = biological target: SARS-CoV-2 spike (S) protein, Omicron sublineage BA.4/5 (SARS-CoV-2)

Binder	IC50, pseudovirus neutralization [1] [µg/mL]	IC80, pseudovirus neutralization [1] [µg/mL]	IC50, pseudovirus neutralization [2] [µg/mL]	IC80, pseudovirus neutralization [2] [µg/mL]	IC50, pseudovirus neutralization [3] [µg/mL]	IC80, pseudovirus neutralization [3] [µg/mL]	IC50, pseudovirus neutralization [4] [µg/mL]	IC80, pseudovirus neutralization [4] [µg/mL]	IC50, pseudovirus neutralization [5] [µg/mL]	IC80, pseudovirus neutralization [5] [µg/mL]
B1	0.0335	0.086	0.0125	0.0167	0.014	0.0206				
B2	0.0359	0.0413	0.0287	0.0298	0.0284	0.0307				
B3	0.013	0.0368	0.00713	0.0236	0.00584	0.0419	0.00253	0.00992	0.00412	0.00589
